What was measured:
[1] = biological target: T1, PD-1蛋白 (冻干, fortebio assay) (UniProt Q15116 25-167, limits assumed); assay: BLI (Octet K2), antibody captured on Protein A sensor, PD-1 protein as analyte from 50 nM, 2-fold dilutions
T1 construct: also called 抗原PD-1蛋白; 冻干PD-1蛋白

人PD-1蛋白(Acro PD1-HB2F2) = biological target: T2, 人PD-1蛋白(Acro PD1-HB2F2) (human, UniProt Q15116 25-167, limits assumed); assay: ELISA, human PD-1 protein coated at 20 ng/mL, antibody titrated from 1000 ng/mL
T2 construct: Bought protein coated on the ELISA plate; also called 抗原PD-1蛋白; human PD-1 protein
T2 sequence (Q15116 25-167 limits assumed): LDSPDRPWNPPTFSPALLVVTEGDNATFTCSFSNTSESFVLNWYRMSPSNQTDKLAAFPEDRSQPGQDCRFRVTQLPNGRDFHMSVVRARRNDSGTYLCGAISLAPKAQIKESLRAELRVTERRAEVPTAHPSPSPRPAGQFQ

T1 sequence (Q15116 25-167 limits assumed): as above

kon [1]: 274000 M⁻¹ s⁻¹
EC50 (人PD-1蛋白(Acro PD1-HB2F2)): 9.98 ng/mL
B1: 抗PD-1纳米抗体 N7 (Fc fusion)
chain: QVQLQESGGGLVQPGGSLRLSCAASGSTYLRFSMGWFRQVPGKEREGVAAIGGDGRTSYADSVKGRFTISKDNSKNTLYLDMNSLRAEDTAVYYCAAAVLLDGSFSLLAPLVPYKYDYWGQGTLVTVSSERKSSVECPPCPAPEFLGGPSVFLFPPKPKDTLMISRTPEVTCVVVDVSQEDPEVQFNWYVDGVEVHNAKTKPREEQFNSTYRVVSVLTVLHQDWLNGKEYKCKVSNKGLPSSIEKTISKAKGQPREPQVYTLPPSQEEMTKNQVSLTCLVKGFYPSDIAVEWESNGQPENNYKTTPPVLDSDGSFFLYSRLTVDKSRWQEGNVFSCSVMHEALHNHYTQKSLSLSLGK

From patent CN114984207A (ZHEJIANG TERUISI PHARMACEUTICAL INC, dated 2022)
